How the values were obtained:
[1] = target: GST‐tagged W105,107A variant of recombinant P. falciparum enolase (not stated | Plasmodium falciparum)
[2] = target: GST‐tagged W105,107A variant of recombinant P. falciparum enolase (not stated | Plasmodium falciparum); test: SEC; proteins with the GST tag; Superdex‐200 Increase 10/300 GL, 1 mg protein in 0.5 mL buffer; 50 mM Tris‐HCl, 150 mM NaCl, 5 mM MgCl2 pH 7.5
[3] = target: GST‐tagged W105,107K variant of recombinant P. falciparum enolase (not stated | Plasmodium falciparum)
[4] = target: GST‐tagged W105,107K variant of recombinant P. falciparum enolase (not stated | Plasmodium falciparum); test: SEC; proteins with the GST tag; Superdex‐200 Increase 10/300 GL, 1 mg protein in 0.5 mL buffer; 50 mM Tris‐HCl, 150 mM NaCl, 5 mM MgCl2 pH 7.5
[5] = target: the molecule itself; test: cell-based or functional assay
[6] = target: the molecule itself; test: SEC; proteins without the GST tag; Superdex‐200 HiLoad 16/600, 1–2 mg of protein in 2 mL buffer; 50 mM Tris‐HCl, 150 mM NaCl, 5 mM MgCl2 pH 7.5; dimer to monomers

Q: Which results are given for “GST‐tagged W105,107A variant of recombinant P. falciparum enolase (enzyme)”?
A: enolase activity, V max (% of GST‐rPfeno) (% of GST‐rPfeno) [1]: 22; stoichiometry N [2]: 2

Q: Which results are given for “GST‐tagged W105,107K variant of recombinant P. falciparum enolase (enzyme)”?
A: enolase activity, V max (% of GST‐rPfeno) (% of GST‐rPfeno) [3]: 33; stoichiometry N [4]: 2

B1: W105,107A variant of recombinant P. falciparum enolase, GST tag removed (enzyme, Plasmodium falciparum, UniProt Q27727 1-446, looked up)
chain: MAHVITRINAREILDSRGNPTVEVDLETNLGIFRAAVPSGASTGIYEALELRDNDKSRYLGKGVQKAIKNINEIIAPKLIGMNCTEQKKIDNLMVEELDGSKNEAGASKSKLGANAILAISMAVCRAGAAPNKVSLYKYLAQLAGKKSDQMVLPVPCLNVINGGSHAGNKLSFQEFMIVPVGAPSFKEALRYGAEVYHTLKSEIKKKYGIDATNVGDEGGFAPNILNANEALDLLVTAIKSAGYEGKVKIAMDVAASEFYNSENKTYDLDFKTPNNDKSLVKTGAQLVDLYIDLVKKYPIVSIEDPFDQDDWENYAKLTAAIGKDVQIVGDDLLVTNPTRITKALEKNACNALLLKVNQIGSITEAIEACLLSQKNNWGVMVSHRSGETEDVFIADLVVALRTGQIKTGAPCRSERNAKYNQLLRIEESLGNNAVFAGEKFRLQLN
Q: Which “enolase activity, V max (% WT rPfeno)” value [5] does the source give for B1 here?
A: 4 % of WT‐rPfeno

B2: recombinant P. falciparum enolase, wild type (WT‐rPfeno), GST tag removed (enzyme, Plasmodium falciparum, UniProt Q27727 1-446, looked up)
chain: MAHVITRINAREILDSRGNPTVEVDLETNLGIFRAAVPSGASTGIYEALELRDNDKSRYLGKGVQKAIKNINEIIAPKLIGMNCTEQKKIDNLMVEELDGSKNEWGWSKSKLGANAILAISMAVCRAGAAPNKVSLYKYLAQLAGKKSDQMVLPVPCLNVINGGSHAGNKLSFQEFMIVPVGAPSFKEALRYGAEVYHTLKSEIKKKYGIDATNVGDEGGFAPNILNANEALDLLVTAIKSAGYEGKVKIAMDVAASEFYNSENKTYDLDFKTPNNDKSLVKTGAQLVDLYIDLVKKYPIVSIEDPFDQDDWENYAKLTAAIGKDVQIVGDDLLVTNPTRITKALEKNACNALLLKVNQIGSITEAIEACLLSQKNNWGVMVSHRSGETEDVFIADLVVALRTGQIKTGAPCRSERNAKYNQLLRIEESLGNNAVFAGEKFRLQLN
notes: Plasmodium falciparum enolase (Pfeno), UniProt Q27727, 446 amino acids; also called Plasmodium falciparum enolase; source: E. coli BL21 (DE3), pGEX4T1, purified on glutathione Sepharose, GST tag cut off with thrombin
Q: With B2 as the molecule, how does the “stoichiometry N” value [6] read?
A: 2
